Consider 36 sequences from the supplement of paper PMC10567573.

A short description of this data set: protein stability index of a GFP-peptide fusion (GPS, HEK-293T) (PSI 1-6); higher = more stable. As to conditions: c terminus: a fixed tail appended.

± gives the standard deviation.
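Also: 24-mer peptide tiles fused after GFP, lentivirally expressed, FACS-sorted into six equal bins by GFP/DsRed ratio, decoded by Illumina sequencing, PSI is the read-weighted mean bin number.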

Take PLIKATVGLIRNLALCPANHAPLR [CTNNB1]: the protein stability index reads like this: (treatment: DMSO) 2.39 ± 0.47; (treatment: MLN4924 1 uM, 8 h) 2.55 ± 0.43.
On the same counts, the results for PMLWNPSGTPKRYSLELGKAIKQK [C22orf31] are 3.59 ± 0.23 and 3.56 ± 0.14.
For the sequence PPLPGDMSTGPIAESWCYTQVKVV [SPOPL], the protein stability index reads like this: (treatment: DMSO) 2.27 ± 0.15; (treatment: MLN4924 1 uM, 8 h) 2.38 ± 0.33.
On the same counts, the results for PPLPPPDDPATLGPHLGLRGVPQS [DYRK1B] are 4.9 ± 0.23 and 4.91 ± 0.14.
On the same counts, the results for PPPPPSPSSLGPLLPLQREPLYNW [BTBD1] are 3.78 ± 0.15 and 3.73 ± 0.25.
In the same order, the values of PPQSPQGASSLPTTMNYPLWSQSY [MAGEA3] are 3.45 ± 0.21 and 3.47 ± 0.22.
Turning to PPRQALGSLCSPWAAPRVGPLPPA [YPEL3], the protein stability index runs as follows: (treatment: DMSO) 3.16 ± 0.51; (treatment: MLN4924 1 uM, 8 h) 3.2 ± 0.44.
For the sequence PQAPDPEEEENRDSQQPGKRRKDS [FANCE], the protein stability index runs as follows: (treatment: DMSO) 5.74 ± 0.21; (treatment: MLN4924 1 uM, 8 h) 5.62 ± 0.3.
In the case of PQQYMAFLPHHIMVKIFRLLPTKS [FBXO34], the protein stability index was determined as 2.23 ± 0.38 (treatment: DMSO) and 2.07 ± 0.39 (treatment: MLN4924 1 uM, 8 h).
On the same counts, the results for PRGRLDLATQSLTVETCRALGKLL [LRRC45] are 2.38 ± 0.28 and 2.31 ± 0.31.
As for PRNSCITCPQCHRSLILDDRGLRG [TRIM9], the protein stability index reads like this: (treatment: DMSO) 2.58 ± 0.27; (treatment: MLN4924 1 uM, 8 h) 3 ± 0.45.
In the same order, the values of PRPDMAPELTPEEEQATKQFLEEI [PTPN9] are 5.12 ± 0.48 and 5.08 ± 0.62.
With PRVPEEAAQDRPMSPGDCPPETTE [YJU2B], the protein stability index was 5.46 ± 0.26 (treatment: DMSO) and 5.4 ± 0.37 (treatment: MLN4924 1 uM, 8 h).
In the case of PRYREDPCKQCKKKYVKGDVSLCR [FBXO34], the protein stability index runs as follows: (treatment: DMSO) 2.99 ± 0.45; (treatment: MLN4924 1 uM, 8 h) 3.35 ± 0.24.
As to PSEDIWKKFELVPSPPTSPPWGLG [MYCL], the protein stability index runs as follows: (treatment: DMSO) 3.04 ± 0.36; (treatment: MLN4924 1 uM, 8 h) 2.9 ± 0.37.
With PSGTPTNLRRHVPDLESGSESGAD [DLC1], the protein stability index was 5.47 ± 0.33 (treatment: DMSO) and 5.46 ± 0.1 (treatment: MLN4924 1 uM, 8 h).
Consider PSLDSRQRLDYEREIQPTAILSLD [SPRY1], for which the protein stability index (treatment: DMSO) was determined as 4.39 ± 0.16 and the protein stability index (treatment: MLN4924 1 uM, 8 h) was found to be 4.53 ± 0.22.
On the same counts, the results for PTAATTQNPVLSKLLMADQDSPLD [LCOR] are 4.9 ± 0.17 and 4.87 ± 0.19.
In the case of PVKKQLQGASWELQSLRPHDEDIK [ZNF396], the protein stability index by setting is: (treatment: DMSO) 4.62 ± 0.21; (treatment: MLN4924 1 uM, 8 h) 4.72 ± 0.38.
On the same counts, the results for PVPGKTLHLPIMGVVMKVRIPTCH [DENND6A] are 2.43 ± 0.72 and 2.45 ± 0.38.
As to PVQELPPSLRAPPPGGWPLQPRVQ [ZMAT5], the protein stability index came to 4.02 ± 0.39 (treatment: DMSO) and 4.18 ± 0.25 (treatment: MLN4924 1 uM, 8 h).
Take PVTNNLLEKCKTLVSQSNDLSSLR [SPACA9]: the protein stability index (treatment: DMSO) stood at 3.04 ± 0.2 and the protein stability index (treatment: MLN4924 1 uM, 8 h) stood at 3.14 ± 0.24.
In the same order, the values of PVTPLGLQNEVPPQPDPVFLEALS [SERTAD3] are 4.55 ± 0.33 and 4.46 ± 0.27.
On the same counts, the results for PVVWWLNLLSIALYLLSGSIIAVA [POMT2] are 3.27 ± 0.14 and 3.43 ± 0.18.
On the same counts, the results for PWVYILLRKAVLKNLYKLASQCCG [PTGFR] are 2.09 ± 0.26 and 2.22 ± 0.45.
PYAMKPIDYYTETKILQERAVLGA [NSDHL] came in with a protein stability index (treatment: DMSO) of 2.85 ± 0.14 and a protein stability index (treatment: MLN4924 1 uM, 8 h) of 3.06 ± 0.18.
In the same order, the values of PYVSDGNFSNYYVAHPPVTYSQPY [TENT5C] are 2.55 ± 0.39 and 2.62 ± 0.38.
Consider QDDLENPMLETASKLLLSGTADGA [ANKRD17], for which the protein stability index by setting is: (treatment: DMSO) 5.14 ± 0.33; (treatment: MLN4924 1 uM, 8 h) 5.2 ± 0.36.
As to QDEEMLELPAPAEVAAKNQSLEGD [MLH1], the protein stability index (treatment: DMSO) stood at 5.37 ± 0.59 and the protein stability index (treatment: MLN4924 1 uM, 8 h) amounted to 5.66 ± 0.17.
With QDLKYISPEIMASVLNGKFANLIK [CDC25A], the protein stability index came to 2.21 ± 0.22 (treatment: DMSO) and 2.24 ± 0.17 (treatment: MLN4924 1 uM, 8 h).
For QELELVLMISENNFLFRNAASTLT [ANKRD40], the protein stability index turned out to be 2.91 ± 0.82 (treatment: DMSO) and 3.28 ± 0.74 (treatment: MLN4924 1 uM, 8 h).
For QEQRLGIRISMSHEEEPLGTAGPL [GMPPB], the protein stability index reads like this: (treatment: DMSO) 4.82 ± 0.21; (treatment: MLN4924 1 uM, 8 h) 4.79 ± 0.34.
In the case of QFLGFSWIFVNLTVRFCILGKESF [HACD3], the protein stability index is, setting by setting: (treatment: DMSO) 3.49 ± 0.52; (treatment: MLN4924 1 uM, 8 h) 3.25 ± 0.16.
On the same counts, the results for QFVSSVPRCDLVDLGEGKICFCCE [FAM189A2] are 2.67 ± 0.37 and 2.98 ± 0.6.
Take QHLPAQEQWDRLLVLYPTSLAIFS [PLEKHN1]: the protein stability index was found to be 2.55 ± 0.53 (treatment: DMSO) and 2.6 ± 0.59 (treatment: MLN4924 1 uM, 8 h).
Regarding QHPDMSVTKVVVHKETEITPEDGE [EPB41L3], the protein stability index worked out at 5.33 ± 0.23 (treatment: DMSO) and 5.39 ± 0.21 (treatment: MLN4924 1 uM, 8 h).
